Measured values reported in patent US20210070885A1 (published 2021).
Substitutions are numbered along the chain they refer to.

B1: Tmab-CLC5 (antibody, V domains shown)
VH: not shown
VL: DIQMTQSPSSLSASVGDRVTITCKASQDVSIGVAWYQQKPGKAPKLLIYSASYRYTGVPSRFSGSGSGTDFTLTISSLQPEDFATYYCQQYYIYPYTFGQGTKVEIKR
B2: Tmab-CLC6 (antibody, V domains shown)
VH: not shown
VL: B1 VL with Y94T
B3: Pmab-CLC2 (antibody, V domains shown)
VH: EVQLVESGGGLVQPGGSLRLSCAASGFTFTDYTMDWVRQAPGKGLEWVADVNPNSGGSIYNQRFKGRFTLSVDRSKNTLYLQMNSLRAEDTAVYYCARNLGPSFYFDYWGQGTLVTVSS
VL: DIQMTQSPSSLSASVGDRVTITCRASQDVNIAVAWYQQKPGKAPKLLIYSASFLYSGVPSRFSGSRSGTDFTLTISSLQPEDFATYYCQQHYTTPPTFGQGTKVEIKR
B4: Pmab-CLC3 (antibody, V domains shown)
VH: B3 VH
VL: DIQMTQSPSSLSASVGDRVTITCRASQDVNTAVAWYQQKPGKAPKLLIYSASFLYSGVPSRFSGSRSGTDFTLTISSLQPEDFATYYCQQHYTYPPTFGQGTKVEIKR
B5: Pmab-CLC4 (antibody, V domains shown)
VH: B3 VH
VL: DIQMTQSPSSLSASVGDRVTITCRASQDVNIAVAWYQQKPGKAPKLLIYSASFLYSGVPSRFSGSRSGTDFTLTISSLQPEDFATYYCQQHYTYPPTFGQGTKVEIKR
B6: Pmab-CLC6 (antibody, V domains shown)
VH: B3 VH
VL: B1 VL with Y94T

Molecular target: HER2m1-Fc (UniProt P04626 23-652)
Test: ELISA

Row | Binder | EC50
1 | B1 | 0.616 µg/mL
2 | B2 | 1.1 µg/mL

Molecular target: HER2m2-Fc (UniProt P04626 23-652)
Test: ELISA

Row | Binder | EC50
3 | B3 | 0.598 µg/mL
4 | B4 | 0.49 µg/mL
5 | B5 | 0.479 µg/mL
6 | B6 | 0.393 µg/mL
